{
  "source": "patent US8815236B2",
  "about": "“Method for treating multiple sclerosis and crohn's disease” (Biogen Idec MA, Inc., priority 2003, dated 2014)",
  "format_in_all_cases": "physicochemical",
  "key": {"[1]": {"test": "65 mg/mL liquid formulation: appearance and SEC", "conditions": "65 mg/mL in 10 mM sodium phosphate, 140 mM sodium chloride, pH 6, about 0.06% polysorbate 80"}, "[2]": {"test": "Protein precipitation facilitated by trace levels of silicone (lubricated polypropylene syringe)", "conditions": "adjusted to 0.02% (w/v) polysorbate 80", "text": "The silicone oil was introduced into the product upon use of standard lubricated polypropylene syringes equipped with siliconized rubber stoppers. […] The aggregation, deamidation and subsequent precipitation caused by denaturation at the air-liquid interface has become more discernable problematic with the drug being shipped to more clinical sites. Both causes of protein precipitation have been resolved by the addition of polysorbate 80 at a concentration of 0.02% (w/v).\nAn evaluation of the ability of 0.02% (w/v) polysorbate 80 to inhibit the protein precipitation facilitated by trace levels of silicone was conducted. […] The material was allowed to stand for several hours at room temperature."}, "[3]": {"test": "Antibody aggregation with partially degraded polysorbate 80 (shaking and siliconized syringes)", "conditions": "control samples without polysorbate 80, same conditions", "protocol": "This material was diluted one-to-one with a 10 mg/mL solution of AN100226 in Formulation #2 resulting in a solution containing 0.01% (w/v) polysorbate 80 and 50% of the maximum level of degraded polysorbate 80."}, "[4]": {"test": "Agitation-induced precipitation: vials shaken at 150 rotations per minute"}, "[5]": {"test": "Lyophilized formulation reconstituted to 100 mg/mL: reconstitution, appearance, SEC", "conditions": "immediately after lyophilization and after 2 wks at 40 deg", "protocol": "The solution was filled at 5 mL per vial into 10 mL borosilicate glass vials and fitted with gray butyl rubber lyophilization stoppers. Lyophilization was done using a Virtis Gensis model lyophilizer. The product was frozen at a shelf temperature of −60° C. for 10 hours and then the shelf temperature was raised to −40°. Primary drying was performed at a shelf temperature of −10° C. and a chamber pressure of 100 mTorr for 20 hours. […] The vials were stoppered under vacuum.\nThe samples were analyzed immediately after lyophilization and after 2 wks of storage in the lyophilized form at 40 deg."}},
  "data": [
    {"substance": "natalizumab", "values": [
      {"measurement": "appearance of solution", "setting": "[1]", "result": "slightly opalescent but without particulates"},
      {"measurement": "particles after 0.2 μm filtration into 5-mL vial", "setting": "[2]; after syringe exposure, after several days", "result": "substantially free of particles"},
      {"measurement": "precipitation by visual inspection", "setting": "[2]; lubricated 60 mL polypropylene syringe, several hours at room temperature", "result": "no precipitation"},
      {"measurement": "precipitation of the antibody", "setting": "[3]", "result": "significant precipitation"},
      {"measurement": "appearance of vials after shaking", "setting": "[4]; 5 mg/mL, Lot No. AN100226-0003 with 0.02% (w/v) polysorbate 80 added, 150 rotations per minute, room temperature, within 3 hours", "result": "remained clear and free of particles"},
      {"measurement": "particle formation on shaking", "setting": "[4]; vials completely filled, absence of polysorbate 80, shaken for extended periods of time", "result": "without additional particle formation being induced"},
      {"measurement": "appearance of reconstituted solutions", "setting": "[5]; 100 mg/mL reconstituted", "result": "clear and colorless with an absence of particulate material"},
      {"measurement": "reconstitution times", "setting": "[5]; lyophilized from 5 mM histidine, 20 mg/mL sucrose, 0.02% polysorbate 80, pH 6, 1 mL WFI to 100 mg/mL", "result": "immediate"}
    ]}
  ]
}
